Results as given in patent publication US10684273B2, “Use of phosphatidylinositol phosphate-binding material for apoptosis detection” (GIL MEDICAL CENTER, priority 2015, dated 2020).
“Also recorded” adds a separate entry of the source.

Columns and labels:
[1] = tested on: Thioglycollate-elicited peritoneal macrophages (Thio-pMacs); experiment: IC-InsP6 absorption by peritoneal macrophages (Prussian blue staining); type: cell-based, C57BL/6 mouse; conditions: compared to non-activated Thio-pMacs; 0 mM to 0.5 mM, 4 hours; concentration-dependent
Method: Thioglycollate-elicited peritoneal macrophages (Thio-pMacs) in a C57BL/6 mouse were obtained. Specifically, 2 mL of 3% Brewer thioglycollate medium (Difco, Detroit, Mich., USA) was intraperitoneally injected the mouse, and 3 to 5 days thereafter, the peritoneum of the mouse was washed with cold PBS to recover peritoneal macrophages. The cells were centrifuged at 1,500 rpm for 5 minutes. The resulting pellet was washed 3 times with PBS, resuspended in DMEM medium containing 10% FBS (Gibco), and cultured on the cover glass in a 6-well plate (Nunc, Fisher Scientific) at a density of 1×10^5 cells/mL. The cells were cultured by adhesion culture, and the slides were washed to remove the suspending cells. Then, the adhered Thio-pMacs cells were cultured according to the presence of LPS (0.5 μg/mL) for 6 hours. LPS induces the activation of Thio-pMacs.
After cultivation, the cells were treated with IC-InsP6 (0 mM to 0.5 mM) for 4 hours. The cells were washed with PBS to remove free IC-InsP6, fixed with formalin (10% neutral buffered) for 5 minutes, and stained as described below for the confirmation of intracellular iron absorption. Specifically, the cover glass was placed in a staining solution (5% potassium ferrocyanide and 12% HCl) for 1 hour, washed 3 times with distilled water, and stained with Prussian blue. […]

[2] = tested on: RAW264.7 macrophages; experiment: IC-InsP6 absorption by RAW264.7 macrophages; type: cell-based; conditions: treatment concentration-dependent
[3] = tested on: liver Kupffer cells; experiment: phagocytosis of IC-InsP6 by liver Kupffer cells after intra-arterial injection; type: in vivo, C57BL/6 mice
[4] = tested on: PtdIns(3,4,5)P3 externalized on the surface of apoptotic HeLa and CHO cells; experiment: binding of recombinant Akt protein to apoptotic cells (confocal microscopy); type: cell-based; conditions: through PH domain; 2 μg protein
Method: First, HeLa and CHO cells were treated with 4 μM camptothecin for 6 hours to induce apoptosis, fixed with formalin (10% neutral buffered) for 5 minutes, and washed twice with PBS. Then, the cells were treated with the serum-free protein blocking solution (Dako), and cultured along with 2 μg of recombinant Akt proteins (Millipore) for 30 minutes. Then, the HeLa and CHO cells, which were bound to Akt proteins, were treated with rabbit anti-CD14 antibody (HPA00212; 1:200, Sigma-Aldrich USA) or the anti-Akt pleckstrin homology (PH) domain antibody of monoclonal mouse (05-591, 1:100, Millipore) for 30 minutes, and treated with FITC-labeled secondary antibody for 30 minutes. Then, the resultant was counterstained with DAPI to visualize nuclei, and counterstained with propidium iodide to distinguish apoptotic cells.
(§1) Then, the cells were placed on a microscope and photographed by the Zeiss LSM 710 laser-scanning confocal microscope (Carl Zeiss) with appropriate excitation using a release filter set. The images were photographed using 40× oil immersion lens. The fluorescence intensity of the unprocessed original images was quantified using ZEN 2010 software (Carl Zeiss).

[5] = protein-lipid overlay assay and immunoblotting (PIP strips or PIP arrays); type: binding; conditions: mixed with 5 μM CaCl2
Method: (§2) To confirm whether the inositol phosphpate groups of various phosphatidylinositol phosphates directly bind to macrophage CD14 receptors, a protein-lipid overlay assay was performed using the full-length recombinant human CD14 proteins and variant CD14 proteins prepared in Example 2-2. PIP strips or PIP arrays were purchased from Echelon Biosciences.
(§3) After culturing a cell membrane for 15 minutes, non-specific bindings to the cell membrane was blocked using TBS-T (50 mM Tris, 0.15 M NaCl, and 0.05% Tween-20, pH 7.4, EDTA-free protease inhibitor cocktail; Roche, Germany) containing 3% BSA. After the blocking, the cell membrane was incubated along with each of the purified recombinant CD14 proteins (100 ρmol) for 30 minutes, washed 3 times with PBS, incubated again with anti-CD14 (rabbit, HPA002127; Sigma-Aldrich), and incubated with horseradish peroxidase (HRP)-labeled secondary antibody (goat; HAF007; R&D Systems) for 30 minutes. The binding was detected using the ImageQuant LAS 4000 (Fujifilm, Japan). As described in Toda et al. (Mol Cell Biol 32, 118, 2012), PIP-affinity bead pulldowns were performed.
To confirm whether the PKCβ1 C2 domain-Myc protein and the inositol phosphpate group in various phosphatidylinositol phosphates directly bind to each other, protein-lipid overlay assay and immunoblotting were performed in the same manner as in Example 2-3. The PIP strip or PIP array was purchased from Echelon Biosciences.
Annexin V, which is known to specifically bind to phosphatidylserine, was subjected to protein-lipid overlay assay and immunoblotting in the same manner as in Example 2-3.

[6] = protein-lipid overlay assay, other lipids on the strip; type: binding; conditions: mixed with 5 μM CaCl2
Method: as §2, §3
To confirm whether the PKCβ1 C2 domain-Myc protein and the inositol phosphpate group in various phosphatidylinositol phosphates directly bind to each other, protein-lipid overlay assay and immunoblotting were performed in the same manner as in Example 2-3. […]

[7] = tested on: apoptotic CHO cells; experiment: detection of apoptosis by recombinant PH domain and annexin V (confocal microscopy); type: cell-based; conditions: 4 μM camptothecin 6 hours
Method: (§4) First, apoptosis was induced in CHO cells by treating them with 4 μM camptothecin for 6 hours, and the cells were fixed with formalin (10% neutral buffered) for 5 minutes and washed twice with PBS. Then, the cells were treated with a serum-free protein blocking solution (DAKO) along with the recombinant PH domain prepared in Example 5-1 for 30 minutes. Then, the cells were treated with the anti-Akt PH domain antibody of monoclonal mouse (05-591, 1:100, Millipore) and then treated with FITC-labeled secondary antibody for 30 minutes. Then, the cells were washed with PBS, fixed with formalin (10% neutral buffered) for 5 minutes, and stained. The cells were counterstained with propidium iodide to distinguish apoptotic cells.
(§5) The recombinant annexin V prepared in Example 5-1 was subjected to an experiment in the same manner and analyzed by FACS.
as §1

[8] = tested on: apoptotic cells; experiment: flow cytometer analysis of apoptosis; type: cell-based; conditions: FIG. 14
Method: as §4, §5

**Q.** For Iron-Calcium-InsP6 (phytate) [IC-InsP6], which “phagocytosis of IC-InsP6 by LPS-activated Thio-pMacs” value [1] is on record?
**A.** effective phagocytosis

**Q.** And the “phagocytosis of IC-InsP6 by RAW264.7 macrophages” value [2]?
**A.** effective phagocytosis

**Q.** And the “phagocytosis of IC-InsP6 by CD14-defective Kupffer cells” value ([3]; CD14-defective mice, intra-arterial injection)?
**A.** hardly phagocytized

**Q.** What about the “phagocytosis of IC-InsP6 by wild-type Kupffer cells” value ([3]; wild-type mice) of the same molecule?
**A.** effectively phagocytized

**Q.** Which “binding to PtdIns(3,4,5)P3 externalized on the surface of apoptotic cells” value [4] does the source give for “recombinant Akt protein: recombinant Akt proteins (Millipore), PH domain-containing protein” here?
**A.** binds; also recorded: can bind

B1: annexin V: human annexin V (1st to 319th amino acids) cloned into pET28a, expressed in E. coli, 37 kDa (protein, UniProt P08758 1-319, looked up, fragment)
chain: MAQVLRGTVTDFPGFDERADAETLRKAMKGLGTDEESILTLLTSRSNAQRQEISAAFKTLFGRDLLDDLKSELTGKFEKLIVALMKPSRLYDAYELKHALKGAGTNEKVLTEIIASRTPEELRAIKQVYEEEYGSSLEDDVVGDTSGYYQRMLVVLLQANRDPDAGIDEAQVEQDAQALFQAGELKWGTDEEKFITIFGTRSVSHLRKVFDKYMTISGFQIEETIDRETSGNLEQLLLAVVKSIRSIPAYLAETLYYAMKGAGTDDHTLIRVMVSRSEIDLFNIRKEFRKNFATSLYSMIKGDTSGDYKKALLLLCGED
**Q.** Which results are given for B1?
**A.** binding to PI(3,5)P2, PI(4,5)P2, and PI(3,4,5)P3 [5]: strongest bindings; binding to PI(5)P, PI(3)P, PI(4)P and PI(3,4)P2 [5]: also shown to bind; binding to various kinds of phosphatidylinositol phosphates ([5]; 100 ρmol): shown to bind; binding to phosphatidylserine [6]: did not bind; binding on the surfaces of apoptotic cells / detection of apoptosis ([7]; FIG. 13): bind at different locations from each other; detection in apoptotic cells by flow cytometer [8]: simultaneously detected

B2: PH domain: human Akt PH domain (1st to 144th amino acids) cloned into pET28a, expressed in E. coli, 21 kDa (protein, UniProt P31749 1-144, looked up, fragment)
chain: MSDVAIVKEGWLHKRGEYIKTWRPRYFLLKNDGTFIGYKERPQDVDQREAPLNNFSVAQCQLMKTERPRPNTFIIRCLQWTTVIERTFHVETPEEREEWTTAIQTVADGLKKQEEEEMDFRSGSPSDNSGAEEMEVSLAKPKHR
modifications: PH domain
notes: human Akt PH domain (1st to 144th amino acids) cloned into pET28a, expressed in E. coli, 21 kDa
**Q.** For B2, which “binding on the surfaces of apoptotic cells / detection of apoptosis” value ([7]; FIG. 13) is on record?
**A.** bind at different locations from each other

**Q.** What about the “binding on the surfaces of apoptotic cells / detection of apoptosis” value ([7]; FIG. 13, listed as recombinant PH domain) of the same molecule?
**A.** can detect apoptosis

**Q.** And the “detection in apoptotic cells by flow cytometer” value [8]?
**A.** appeared
